Paper PMC9988990

Assays:
Assay in all cases: SEC; Superose 6 10/300 in 10 mM Tris, 100 mM NaCl, pH 8.0, after StrepTactin affinity purification; peak of the trimeric ectodomain
[1] = molecular target: recombinant gorilla GII FV Env ectodomain variant mut2 (R356A/R369A) (simian foamy virus, gorilla (genotype II))
[2] = molecular target: recombinant gorilla GII FV Env ectodomain variant mut1 (K342A/R343A) (simian foamy virus, gorilla (genotype II))
[3] = molecular target: recombinant gorilla GII FV Env ectodomain, wild type (simian foamy virus, gorilla (genotype II))

## recombinant gorilla GII FV Env ectodomain variant mut2 (R356A/R369A) (domain or fragment)
[1]
  stoichiometry N: 3

## recombinant gorilla GII FV Env ectodomain variant mut1 (K342A/R343A) (domain or fragment)
[2]
  stoichiometry N: 3

## recombinant gorilla GII FV Env ectodomain, wild type (domain or fragment)
[3]
  stoichiometry N: 3
